According to publication PMC5548138 (Neuron, 2017):

Biological target: recombinant bovine NX-1α protein (btNX-1α), ectodomain L1-L6 his6 (bovine, UniProt Q28146 31-1454)
Experiment: co-IP

Sequence of recombinant bovine NX-1α protein (btNX-1α), ectodomain L1-L6 his6 (Q28146 31-1454): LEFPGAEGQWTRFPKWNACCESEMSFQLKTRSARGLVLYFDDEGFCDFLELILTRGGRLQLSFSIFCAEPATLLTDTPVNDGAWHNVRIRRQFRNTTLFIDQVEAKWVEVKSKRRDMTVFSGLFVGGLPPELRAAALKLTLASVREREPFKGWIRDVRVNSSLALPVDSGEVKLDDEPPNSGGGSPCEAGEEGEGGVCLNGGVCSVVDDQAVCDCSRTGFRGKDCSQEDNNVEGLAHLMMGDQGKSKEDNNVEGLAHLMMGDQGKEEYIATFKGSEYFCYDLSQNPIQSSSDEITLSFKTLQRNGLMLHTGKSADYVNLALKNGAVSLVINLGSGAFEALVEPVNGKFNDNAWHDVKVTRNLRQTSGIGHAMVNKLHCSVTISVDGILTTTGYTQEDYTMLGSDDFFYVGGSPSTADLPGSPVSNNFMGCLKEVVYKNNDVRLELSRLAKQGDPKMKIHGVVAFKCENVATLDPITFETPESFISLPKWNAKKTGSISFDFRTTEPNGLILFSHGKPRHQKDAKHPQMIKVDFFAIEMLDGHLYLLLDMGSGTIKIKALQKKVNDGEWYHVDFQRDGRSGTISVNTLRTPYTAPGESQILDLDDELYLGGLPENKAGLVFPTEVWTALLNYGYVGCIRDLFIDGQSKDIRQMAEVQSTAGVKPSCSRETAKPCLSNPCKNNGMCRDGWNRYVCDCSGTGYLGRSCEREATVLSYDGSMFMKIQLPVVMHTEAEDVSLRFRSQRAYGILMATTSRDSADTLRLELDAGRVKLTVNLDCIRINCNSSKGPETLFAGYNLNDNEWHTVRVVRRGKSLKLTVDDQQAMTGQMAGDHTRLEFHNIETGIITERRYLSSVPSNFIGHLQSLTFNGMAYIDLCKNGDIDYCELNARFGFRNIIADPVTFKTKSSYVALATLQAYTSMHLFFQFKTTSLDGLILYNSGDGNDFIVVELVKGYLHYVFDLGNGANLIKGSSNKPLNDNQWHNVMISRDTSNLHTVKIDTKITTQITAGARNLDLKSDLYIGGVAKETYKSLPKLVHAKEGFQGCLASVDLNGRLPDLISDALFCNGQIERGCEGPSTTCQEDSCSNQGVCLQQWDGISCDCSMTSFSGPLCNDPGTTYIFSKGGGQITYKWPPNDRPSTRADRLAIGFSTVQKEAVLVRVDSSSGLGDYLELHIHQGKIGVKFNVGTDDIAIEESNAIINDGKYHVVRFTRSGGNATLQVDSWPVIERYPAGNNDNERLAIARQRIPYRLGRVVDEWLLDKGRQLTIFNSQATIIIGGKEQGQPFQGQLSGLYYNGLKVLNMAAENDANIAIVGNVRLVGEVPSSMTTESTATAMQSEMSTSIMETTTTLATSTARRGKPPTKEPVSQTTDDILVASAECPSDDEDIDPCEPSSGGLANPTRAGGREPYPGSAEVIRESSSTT

Kd: ~40 nM
B1: HA-tagged α2δ-3 (mouse) (natural protein, UniProt Q9Z1L5 34-1091, looked up)
chain: EQQIPLSVVKLWASAFGGEIKSIAAKYSGSQLLQKKYKEYEKDVAIEEIDGLQLVKKLAKIMEEMFHKKSEAVRRLVEAAEEAHLKHEFDADLQYEYFNAVLINERDKDGNFLELGKEFILAPNDHFNNLPVNISLSDVQVPTNMYNKDPAIVNGVYWSESLNKVFVDNFDRDPSLIWQYFGSAKGFFRQYPGIKWEPDENGVIAFDCRNRKWYIQAATSPKDVVILVDVSGSMKGLRLTIAKQTVSSILDTLGDDDFFNIITYNEELHYVEPCLNGTLVQADRTNKEHFREHLDKLFAKGIGMLDIALNEAFNILSDFNHTGQGSICSQAIMLITDGAVDTYDTIFAKYNWPDRKVRIFTYLIGREAAFADNLKWMACANKGFFTQISTLADVQENVMEYLHVLSRPKVIDQEHDVVWTEAYIDSTLPQAQKLADDQGLVLMTTVAMPVFSKQNETRSKGILLGVVGTDVPVKELLKTIPKYKLGIHGYAFAITNNGYILTHPELRPLYEEGKKRRKPNYSSVDLSEVEWEDRDDVLRNAMVNRKTGKFSMEVKKTVDKGKRVLVMTNDYYYTDIKGTPFSLGVALSRGHGKYFFRGNVTIEEGLHDLEHPDVSLADEWSYCNTDLHPEHRHLSQLEAIKLYLKGKEPLLQCDKELIQEVLFDAVVSAPIEAYWTSLALNKSENSDKGVEVAFLGTRTGLSRINLFVGAEQLTNQDFLKAGDKENIFNADHFPLWYRRAAEQIAGSFVYSIPFSTGTVNKSNVVTASTSIQLLDERKSPVVAAVGIQMKLEFFQRKFWTASRQCASLDGKCSISCDDETVNCYLIDNNGFILVSEDYTQTGDFFGEVEGAVMNKLLTMGSFKRITLYDYQAMCRANKESSDSAHGLLDPYKAFLSAAKWIMTELVLFLVEFNLCSWWHSDMTAKAQKLKQTLEPCDTEYPAFVSERTIKETTGNIACEDCSKSFVIQQIPSSNLFMVVVDSSCLCESVAPITMAPIEIRYNESLKCERLKAQKIRRRPESCHGFHPEENARECGGASSLQAQAALLLLPLVSSLFSR
